In the supplement of paper PMC10567573:
± gives the standard deviation.

Test: protein stability index of a GFP-peptide fusion (GPS, HEK-293T) (PSI 1-6); higher = more stable
[1] = treatment: DMSO, c terminus: a fixed tail appended
[2] = treatment: MLN4924 1 uM, 8 h, c terminus: a fixed tail appended
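Further: 24-mer peptide tiles fused after GFP, lentivirally expressed, FACS-sorted into six equal bins by GFP/DsRed ratio, decoded by Illumina sequencing, PSI is the read-weighted mean bin number.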

Sequence | protein stability index [1] | protein stability index [2] | protein stability index (treatment: DMSO, c terminus: native) | protein stability index (treatment: MLN4924 1 uM, 8 h, c terminus: native)
CMGAMSLFLPCLLCYPPAKGCLKL [SPRY1] | 2.8 ± 0.56 | 3.04 ± 0.83 | – | –
RRDCMWSGFSARERLERAVSDRLA [MYCL] | 3.31 ± 0.23 | 3.4 ± 0.18 | – | –
DFKDFYPAIADLFAESLQCKVDCE [P3H4] | 2.84 ± 0.4 | 3.16 ± 0.62 | – | –
SSYYKFKLTREVLSLFVQKLGNLM [ZER1] | 2.83 ± 0.45 | 2.6 ± 0.36 | – | –
TLALQGTQGQEKMMMMGPKEEEQS [ZNF232] | 5.29 ± 0.31 | 5.43 ± 0.14 | – | –
AILSLDQIKAIRGSNEYTEGPSVV [SPRY1] | 3 ± 0.072 | 2.98 ± 0.3 | – | –
YLGSLQYRVWKKMLASVESVPFSF [TRIM35] | 2.93 ± 0.63 | 2.33 ± 0.48 | – | –
HTETKTITYESSQVDPGTDLEPGV [EPB41L3] | 5.48 ± 0.17 | 5.37 ± 0.25 | – | –
DEKDRIITAFYNEARARARANRGI [DNAJC4] | 4 ± 0.35 | 4.16 ± 0.17 | – | –
SFPPSLSSSSSSSPTSGSPRGSHS [LURAP1L] | 4.96 ± 0.2 | 5.01 ± 0.16 | – | –
KKTSITQQPSKHRTDEELQPPTTT [PLK2] | 5.27 ± 0.2 | 5.26 ± 0.16 | – | –
GSAAKLVCYFTNWAQYRQGEARFL [CHIT1] | 2.1 ± 0.36 | 2.23 ± 0.18 | – | –
KGDRGLPLEGSAKGKVQAELSQPL [RBBP5] | 4.82 ± 0.33 | 4.75 ± 0.11 | – | –
GVSPADMYRWKLSSHEPCSATCTT [ADAMTSL2] | 2.98 ± 0.33 | 3.37 ± 0.63 | – | –
VQDKTPLYSQLLQAYKWSNKLQYH [MED27] | 2.18 ± 0.27 | 2.19 ± 0.25 | – | –
SSTPDSTEGGNDDSDFRELHTARE [RTN2] | 5.41 ± 0.29 | 5.53 ± 0.21 | – | –
ARGGAVSARYVLPDEAARARLLQE [DUSP5] | 4.63 ± 0.16 | 4.54 ± 0.34 | – | –
PAPLCGGPSAEAYLLHPAAFHGAP [TBX6] | 2.82 ± 0.34 | 2.95 ± 0.27 | – | –
ATRGVPAKRLLDADDAAAVAAKCP [TRIB1] | 4.39 ± 1.5 | – | – | –
DIRYLLGYVSQQGGQRSTPLIIAA [FEM1B] | 2.5 ± 0.41 | 2.62 ± 0.21 | – | –
KAKKNKDKYVGVSSDSVGGFRYSE [CLINT1] | 4.53 ± 0.19 | 4.58 ± 0.24 | – | –
NTRVRELAQAAGFAPQTGARPSET [DNAAF3] | 4.71 ± 0.11 | 4.79 ± 0.25 | – | –

Sequence | protein stability index [1] | protein stability index [2] | protein stability index (treatment: DMSO, c terminus: native) | protein stability index (treatment: MLN4924 1 uM, 8 h, c terminus: native)
ELDELQAAFEEFDTDRDGYISHRE [CABP4] | 5.26 ± 0.25 | 5.32 ± 0.15 | – | –
AAPDCTPSLEAGNPAPAAPCPLGE [MYCL] | 5.42 ± 0.25 | 5.49 ± 0.26 | – | –
ARRRVCHTEDFQKEEGTVNGASWH [CPXM2] | 4.57 ± 0.16 | 4.71 ± 0.84 | – | –
ASVPKVETVKSDNKDDDIDIDAI [EIF5] | – | – | 5.59 ± 0.17 | 5.53 ± 0.22
QTALLESSCENKRADLVFIIDSSR [MATN2] | 3.05 ± 0.24 | 3.24 ± 0.28 | – | –
LSANLHGGAVVANYPYDKSFEHRV [CPN1] | 3.46 ± 0.27 | 3.5 ± 0.28 | – | –
AALSERGQAEEELIKAKSQARLEE [LRRC45] | 5.28 ± 0.55 | 5.39 ± 0.46 | – | –
TSQKIAARAFAQRYLADLLPSVFG [RSPH3] | 2.12 ± 0.56 | 2.09 ± 0.18 | – | –
LFLRCSLRHKDEEEEDDDDIHITA [DRICH1] | 3.03 ± 0.35 | 3.23 ± 0.28 | – | –
EKLITWLNKELNENQLVRKQDVLG [SASS6] | 2.12 ± 0.44 | 3.1 ± 0.26 | – | –
SRFYEIHARARDQGQPAMEGHCVI [PCDHGC5] | 2.82 ± 0.27 | 2.54 ± 0.15 | – | –
RILQDEQYLMASDMAGKIKLWDLR [DCAF4] | 2.75 ± 0.34 | 3.01 ± 0.12 | – | –
SLLCLLCSNSQEHGAHKHHPIEEA [TRIM43] | 2.67 ± 0.2 | 2.77 ± 0.21 | – | –
LPWQGLKADTLKERYQKIGDTKRA [CSNK1G3] | 3.77 ± 0.11 | 3.76 ± 0.41 | – | –
ETELAMRQSVENDIHGLRKVIDDT [KRT18] | 5.17 ± 0.28 | 5.2 ± 0.18 | – | –
LFQILSERQDMYQCLVEGCTEKFK [ZNF511] | 2.24 ± 0.35 | 2.54 ± 0.6 | – | –
YVRMVFLALYVLFLADEEFDVVVC [ALG2] | 3.1 ± 0.71 | 2.93 ± 1 | – | –
RKKSKPKKCVKKFVEYCDVNNDKS [SMOC2] | 3.52 ± 0.22 | 3.93 ± 0.58 | – | –
EQKVLSRLVESLSTQIRALTEQQE [RASAL3] | 2.65 ± 0.046 | 2.76 ± 0.19 | – | –
LYYFRLAARSPQGLGASTAEISAR [PTPRD] | 2.34 ± 0.42 | 2.33 ± 0.39 | – | –
WPLRGKREAMLEMLLQHQICKEVQ [SPAG8] | 2.17 ± 0.4 | 2.11 ± 0.24 | – | –
IPHTHLLATLDPLALDREPPPHLL [WDR88] | 3.23 ± 0.12 | 3.26 ± 0.14 | – | –

Sequence | protein stability index [1] | protein stability index [2] | protein stability index (treatment: DMSO, c terminus: native) | protein stability index (treatment: MLN4924 1 uM, 8 h, c terminus: native)
KARDWFQGHLRRLRSRYSVASFKF [MYORG] | 2.21 ± 0.33 | 2.15 ± 0.29 | – | –
APSPSPVTPAQNNLLQPNFEAAFG [SNAP91] | 4.43 ± 0.089 | 4.54 ± 0.38 | – | –
SGLDSPSHAAPGPSPDSWVPRPGT [FCHO1] | 4.08 ± 0.18 | 4.25 ± 0.19 | – | –
LLFSLTQFSVVSVVAYLALAALSA [RTN1] | 3.4 ± 0.54 | 3.24 ± 0.058 | – | –
LESRQRSLEQANRSLQLRIQELEL [TFE3] | 3.97 ± 0.27 | 3.98 ± 0.4 | – | –
STQTKKLSASSPRMLHRSTQTTND [ZMYND11] | 4.71 ± 0.54 | 5.15 ± 0.17 | – | –
AWETKKILAVSFAPLIQPCHSESG [PCMTD2] | 2.35 ± 0.2 | 2.54 ± 0.35 | – | –
HVASLADDKMVRFWRIDEDYPVQV [WSB1] | 2.4 ± 0.23 | 3.02 ± 0.51 | – | –
SPLQTIGEEQTQNPYTELLVLKAH [WDR41] | 3.78 ± 0.078 | 3.75 ± 0.3 | – | –
RMKEPSSPPPAPTSSTFGLQDGNL [CHCHD6] | 4.63 ± 0.26 | 4.53 ± 0.35 | – | –
VQDEFLDTPCTNRGLPLLKTDFGS [DLC1] | 3.85 ± 0.43 | 3.91 ± 0.41 | – | –
LSFYDAERHCHLYTFHARFGEVRP [TRIM35] | 2.34 ± 0.54 | 2.3 ± 0.55 | – | –
RLSSRYRYGQLIEINSHSLFSKWF [TRIP13] | 2.12 ± 0.28 | 2.04 ± 0.38 | – | –
RPFWEEEKTFWKEEKSFWEMEKSF [CCDC70] | 2.71 ± 0.2 | 3.19 ± 0.26 | – | –
RVEASHLTTSQERELGIRQRDEQL [FBF1] | 4.91 ± 0.22 | 5.13 ± 0.22 | – | –
LSEKEINAREESLVEELSPASEKK [BCL2L13] | 5.42 ± 0.46 | 5.58 ± 0.15 | – | –
STLGGDIRESDPEQAPAPGEATAA [TBX6] | 5.65 ± 0.14 | 5.53 ± 0.38 | – | –
GNSSGSDVTSLSSQLPDTPNSMVP [ISL2] | 5.13 ± 0.2 | 4.9 ± 0.32 | – | –
QGEEVAQRSTVFKTTIPEEEEEEE [LMNB1] | 5.63 ± 0.19 | 5.64 ± 0.25 | – | –
KLQVSQQEDITKSLLVTELGSSRT [IMPA1] | 4.18 ± 0.28 | 4.28 ± 0.25 | – | –
VDGRLTYPTCGIGYPVSSAFAFQN [SASS6] | 2.37 ± 0.23 | 2.38 ± 0.37 | – | –
